This note sets out measurements from PMC7773337 (2020).

One may read the Kd as the free concentration of one partner at which half of the binding sites on the other are occupied at equilibrium, for simple one-to-one binding. Lower therefore signals a tighter complex.

The target of the assay is reconstituted mononucleosomes (histone octamer on Widom '601' DNA).

B1: zz-LAP1B(98-136)-2E His6 (S108E, T124E) (domain or fragment)
chain: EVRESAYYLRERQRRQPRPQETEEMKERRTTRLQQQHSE
The molecule B1 showed a Kd of 9.13 µM.

B2: zz-LAP1B(98-136)-His6 wild-type (domain or fragment)
chain: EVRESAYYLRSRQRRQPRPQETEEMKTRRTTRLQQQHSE
Take B2: the affinity, expressed as Kd, was 0.43 µM.
